{
  "source": "patent US20230257470A1",
  "about": "(published 2023)",
  "binders": {"B1": {"name": "IL6R-BP195/IL6R-L (antibody, human IgG1, name in EU numbering)", "heavy": "QVQLQESGPGLVKPSETLSLTCAVSGHSISHDHAWSWVRQPPGEGLEWIGFISYSGITNYNPSLQGRVTISRDNSKNTLYLQMNSLRAEDTAVYYCARSLARTTAMDYWGEGTLVTVSSASTKGPSVFPLAPSSKSTSGGTAALGCLVKDYFPEPVTVSWNSGALTSGVHTFPAVLQSSGLYSLSSVVTVPSSSLGTQTYICNVNHKPSNTKVDKKVEPKSCDKTHTCPPCPAPDYLGDDSVFLFPPKPKDTLMISRTPEVTCVVVDVSDEDGEVKFNWYVDGVEVHNAKTKPREEQDNSTYRVVSVLTVLHQDWLNGKEYKCKVSNAALPKPIEKTISKAKGQPREPQVYTLPPSRDELTKNQVSLTCLVKGFYPSDIAVEWESNGQPENNYKTTPPVLDSDGSFFLYSKLTVDKSRWQQGNVFSCSVMHEALHNHYTQESLSLSP", "light": "DIQMTQSPSSLSASVGDRVTITCRASQDISSYLNWYQQKPGKAPKLLIYYTSRLHSGVPSRFSGSGSGTDFTFTISSLQPEDIATYYCQQGNTLPYTFGQGTKVEIK", "notes": "Anti-human IL-6 receptor IgG1 Fc variant; also called E233D/L234Y/G237D/P238D/H268D/P271G/Y296D/K326A/A330K; copies: 2 + 2"}, "B2": {"name": "GpH7-B3 G236R/GpL16-k0 (antibody, human IgG1)", "heavy": "not shown", "light": "DIVMTQSPLSLPVTPGEPASISCQASESLVHSNRNTYLHWYLQKPGQSPQLLIYKVSNRFSGVPDRFSGSGSGTDFTLKISRVEAEDVGVYYCSQNTHVPPTFGQGTKVEIE", "notes": "anti-glypican-3 IgG1; B3 constant region (G1d with K439E); also called B3 variant; copies: 2 + 2"}, "B3": {"name": "GpH7-B3 variant P238W/GpL16-k0 (antibody, human IgG1)", "heavy": "not shown", "light": "DIVMTQSPLSLPVTPGEPASISCQASESLVHSNRNTYLHWYLQKPGQSPQLLIYKVSNRFSGVPDRFSGSGSGTDFTLKISRVEAEDVGVYYCSQNTHVPPTFGQGTKVEIE", "notes": "copies: 2 + 2"}, "B4": {"name": "GpH7-B3 L235R/GpL16-k0 (antibody, human IgG1)", "heavy": "not shown", "light": "DIVMTQSPLSLPVTPGEPASISCQASESLVHSNRNTYLHWYLQKPGQSPQLLIYKVSNRFSGVPDRFSGSGSGTDFTLKISRVEAEDVGVYYCSQNTHVPPTFGQGTKVEIE", "notes": "as for B2"}, "B5": {"name": "GpH7-B3 variant P238K/GpL16-k0 (antibody, human IgG1)", "heavy": "not shown", "light": "DIVMTQSPLSLPVTPGEPASISCQASESLVHSNRNTYLHWYLQKPGQSPQLLIYKVSNRFSGVPDRFSGSGSGTDFTLKISRVEAEDVGVYYCSQNTHVPPTFGQGTKVEIE", "notes": "copies: 2 + 2"}, "B6": {"name": "GpH7-B3 variant D265F/GpL16-k0 (antibody, human IgG1)", "heavy": "not shown", "light": "DIVMTQSPLSLPVTPGEPASISCQASESLVHSNRNTYLHWYLQKPGQSPQLLIYKVSNRFSGVPDRFSGSGSGTDFTLKISRVEAEDVGVYYCSQNTHVPPTFGQGTKVEIE", "notes": "copies: 2 + 2"}},
  "key": {"human FcγRIIa type R": {"biological_target": "T1, human FcγRIIa type R (human, UniProt P12318 36-217)", "T1 construct": "also called FcgRIIaR; FcγRIIa(R)", "T1 chain": "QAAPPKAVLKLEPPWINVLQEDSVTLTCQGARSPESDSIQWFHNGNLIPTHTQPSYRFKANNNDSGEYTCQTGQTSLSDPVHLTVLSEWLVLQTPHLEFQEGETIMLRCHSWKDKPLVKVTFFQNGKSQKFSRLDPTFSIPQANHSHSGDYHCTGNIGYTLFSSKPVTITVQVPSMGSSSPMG", "assay": "SPR (Biacore), amount of FcγR bound to captured antibody relative to IL6R-BF648/IL6R-L x100", "procedure": "According to the following method, relative binding activities were calculated for the results of analyzing interactions with the respective FcγRs."}, "human FcγRIIIa(F) [1]": {"biological_target": "T2, human FcγRIIIa(F) (human, UniProt P08637 17-208, limits assumed)", "T2 construct": "also called FcgRIIIaF; FcγRIIIa allotype F158", "assay": "SPR, captured antibody, FcγR analyte; bound amount per captured antibody", "T2 sequence (P08637 other isoform, or with tags, fused parts or gaps limits assumed)": "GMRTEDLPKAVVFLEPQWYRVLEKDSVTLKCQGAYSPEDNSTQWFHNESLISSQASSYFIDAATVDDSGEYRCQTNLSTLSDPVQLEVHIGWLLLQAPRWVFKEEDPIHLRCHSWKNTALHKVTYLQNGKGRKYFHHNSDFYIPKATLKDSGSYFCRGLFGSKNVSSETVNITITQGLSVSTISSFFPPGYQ", "procedure": "(§1) Interaction between each modified antibody and Fcγ receptor prepared in the manner described above was analyzed using the BIACORE™ T100 surface plasmon resonance system (GE Healthcare), BIACORE™ T200 surface plasmon resonance system (GE Healthcare), BIACORE™ A100 surface plasmon resonance system or BIACORE™ 4000 surface plasmon resonance system. HBS-EP+(GE Healthcare) was used for the running buffer, and measurements were carried out at 25° C. The chips used were chips in which antigen peptides, Protein A (Thermo Scientific), Protein A/G (Thermo Scientific) or Protein L (ACTIGEN® protein (Alltech or BioVision) were immobilized on the Series S Sensor Chip CM5 (GE Healthcare) or Series S Sensor Chip CM4 (GE Healthcare) by amine coupling, or chips in which preliminarily biotinylated antigen peptides were allowed to interact and then immobilized on the Series S Sensor Chip SA (certified) (GE Healthcare). The target antibodies were captured on these sensor chips, Fcγ receptor diluted with the running buffer was allowed to interact, followed by measurement of the amount of bound antibody. The amounts bound were compared between antibodies. However, since the amount of Fcγ receptor bound depends on the amount of captured antibody, the values used for comparison were first corrected by dividing the amount of Fcγ receptor bound by the captured amount of each antibody. Through reaction with 10 mM glycine-HCl at pH 1.5, the sensor chips were regenerated by washing off antibody captured on the sensor chips and used repeatedly.\n(§2) Binding strength was evaluated according to the following method based on the results of analyzing the interaction with each FcγR. […] That value was then further multiplied by 100, and the resulting value was used as an indicator of relative binding activity to each FcγR."}, "human FcγRIIIa(F) [2]": {"biological_target": "T3, human FcγRIIIa(F) (human, UniProt P08637 17-208, limits assumed)", "T3 construct": "Soluble analyte in SPR; allotype F158 stood in the assay; also called FcgRIIIaF; FcγRIIIa allotype F158", "assay": "SPR, captured antibody, FcγR as analyte", "T3 sequence (P08637 other isoform, or with tags, fused parts or gaps limits assumed)": "as above", "procedure": "as §1, §2"}, "human FcγRIIb [3]": {"biological_target": "T4, human FcγRIIb (human, UniProt P31994 43-217, limits assumed)", "T4 construct": "also called FcgRIIb; FcγIIB", "T4 sequence": "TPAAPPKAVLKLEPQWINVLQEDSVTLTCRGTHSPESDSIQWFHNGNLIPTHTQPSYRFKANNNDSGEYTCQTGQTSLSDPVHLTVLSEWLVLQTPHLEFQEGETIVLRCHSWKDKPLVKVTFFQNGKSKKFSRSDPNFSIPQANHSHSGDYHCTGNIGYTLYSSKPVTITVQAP", "assay": "SPR, captured antibody, FcγR analyte; bound amount per captured antibody", "procedure": "as §1, §2"}, "human FcγRIIa(H)": {"biological_target": "T5, human FcγRIIa(H) (human, UniProt P12318 36-217)", "T5 construct": "Soluble analyte in SPR; also called FcgRIIaH; FcγRIIa type H", "T5 sequence": "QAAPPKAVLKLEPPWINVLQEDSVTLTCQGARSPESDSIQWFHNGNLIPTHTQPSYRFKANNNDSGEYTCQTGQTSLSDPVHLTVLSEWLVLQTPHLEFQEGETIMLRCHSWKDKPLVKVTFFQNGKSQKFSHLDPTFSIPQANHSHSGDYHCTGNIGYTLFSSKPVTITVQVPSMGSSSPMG", "assay": "SPR, captured antibody, FcγR as analyte", "procedure": "as §1, §2"}, "human FcγRIIb [4]": {"biological_target": "T6, human FcγRIIb (human, UniProt P31994 43-217, limits assumed)", "T6 construct": "Soluble analyte in SPR; also called FcgRIIb; FcγIIB", "T6 sequence": "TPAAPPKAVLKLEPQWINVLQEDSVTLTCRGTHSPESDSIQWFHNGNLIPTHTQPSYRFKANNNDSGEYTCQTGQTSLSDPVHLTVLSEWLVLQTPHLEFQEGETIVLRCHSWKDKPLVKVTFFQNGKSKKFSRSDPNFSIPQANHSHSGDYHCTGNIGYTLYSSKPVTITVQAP", "assay": "SPR, captured antibody, FcγR as analyte", "procedure": "as §1, §2"}, "human FcγRIIa(R)": {"biological_target": "T7, human FcγRIIa(R) (human, UniProt P12318 36-217)", "T7 construct": "Soluble analyte in SPR; also called FcgRIIaR; FcγRIIa type R", "T7 chain": "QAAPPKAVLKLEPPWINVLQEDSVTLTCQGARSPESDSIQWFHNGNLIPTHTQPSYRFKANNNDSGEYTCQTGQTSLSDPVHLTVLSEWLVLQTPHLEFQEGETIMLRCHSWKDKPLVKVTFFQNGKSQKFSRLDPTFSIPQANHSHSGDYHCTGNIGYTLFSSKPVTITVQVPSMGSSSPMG", "assay": "SPR, captured antibody, FcγR as analyte", "procedure": "as §1, §2"}},
  "data": [
    {"binder": "B1", "values": [
      {"measurement": "relative binding activity", "setting": "human FcγRIIa type R", "result": "661 % of IL6R-BF648/IL6R-L"}
    ]},
    {"binder": "B2", "values": [
      {"measurement": "relative binding activity", "setting": "human FcγRIIIa(F) [1]", "result": "1 % of GpH7-B3/GpL16-k0"}
    ]},
    {"binder": "B3", "values": [
      {"measurement": "relative binding activity", "setting": "human FcγRIIIa(F) [2]", "result": "1 % of GpH7-B3/GpL16-k0"}
    ]},
    {"binder": "B4", "values": [
      {"measurement": "relative binding activity", "setting": "human FcγRIIb [3]", "result": "2 % of GpH7-B3/GpL16-k0"}
    ]},
    {"binder": "B5", "values": [
      {"measurement": "relative binding activity", "setting": "human FcγRIIa(H)", "result": "1 % of GpH7-B3/GpL16-k0"},
      {"measurement": "relative binding activity", "setting": "human FcγRIIb [4]", "result": "2 % of GpH7-B3/GpL16-k0"}
    ]},
    {"binder": "B6", "values": [
      {"measurement": "relative binding activity", "setting": "human FcγRIIa(R)", "result": "1 % of GpH7-B3/GpL16-k0"}
    ]}
  ]
}
